# Measurements published in article doi:10.1101/2024.12.17.628833 (bioRxiv, 2024).
# Molecular target: the molecule itself
# Experiment: cryo-EM structure
row,Protein,stoichiometry N
1,"full-length Arabidopsis GORK (AtGORK^FL, residues 1 to 820) (natural protein, Arabidopsis thaliana, UniProt Q94A76 1-820, looked up) MGRLRRRQEIIDHEEEESNDDVSSRRGKLSLAETFRWLDSSEHRRIETDGHNDYKYIIHPKNRWYKAWEMFILVWAIYSSLFTPMEFGFFRGLPERLFVLDIVGQIAFLVDIVLQFFVAYRDTQTYRTVYKPTRIAFRYLKSHFLMDFIGCFPWDLIYKASGKHELVRYLLWIRLFRVRKVVEFFQRLEKDTRINYLFTRILKLLFVEVYCTHTAACIFYYLATTLPPENEGYTWIGSLKLGDYSYENFREIDLWKRYTTALYFAIVTMATVGYGDIHAVNLREMIFVMIYVSFDMVLGAYLIGNITALIVKGSNTERFRDKMNDLISFMNRKKLGRDLRSQITGHVRLQYDSHYTDTVMLQDIPASIRAKIAQLLYLPYIKKVPLFKGCSTEFINQIVIRLHEEYFLPGEVITEQGNVVDHLYFVCEGLLEALVTKTDGSEESVTLLGPHTSFGDISIICNISQPFTVRVCELCHLLRLDKQSFSNILEIYFHDGRTILNNIMEEKESNDRIKKLESDIVIHIGKQEAELALKVNSAAFQGDFYQLKSLIRSGADPNKTDYDGRSPLHLAACRGYEDITLFLIQEGVDVNLKDKFGHTPLFEAVKAGQEGVIGLLVKEGASFNLEDSGNFLCTTVAKGDSDFLKRLLSSGMNPNSEDYDHRTPLHVAASEGLFLMAKMLVEAGASVISKDRWGNSPLDEARLCGNKKLIKLLEDVKNAQSSIYPSSLRELQEERIERRKCTVFPFHPQEAKEERSRKHGVVVWIPSNLEKLIVTAAKELGLSDGASFVLLSEDQGRITDIDMISDGHKLYMISDTTDQT",4
2,"AtGORK^623 (residues 1 to 623) (domain or fragment, Arabidopsis thaliana, UniProt Q94A76 1-623, looked up) MGRLRRRQEIIDHEEEESNDDVSSRRGKLSLAETFRWLDSSEHRRIETDGHNDYKYIIHPKNRWYKAWEMFILVWAIYSSLFTPMEFGFFRGLPERLFVLDIVGQIAFLVDIVLQFFVAYRDTQTYRTVYKPTRIAFRYLKSHFLMDFIGCFPWDLIYKASGKHELVRYLLWIRLFRVRKVVEFFQRLEKDTRINYLFTRILKLLFVEVYCTHTAACIFYYLATTLPPENEGYTWIGSLKLGDYSYENFREIDLWKRYTTALYFAIVTMATVGYGDIHAVNLREMIFVMIYVSFDMVLGAYLIGNITALIVKGSNTERFRDKMNDLISFMNRKKLGRDLRSQITGHVRLQYDSHYTDTVMLQDIPASIRAKIAQLLYLPYIKKVPLFKGCSTEFINQIVIRLHEEYFLPGEVITEQGNVVDHLYFVCEGLLEALVTKTDGSEESVTLLGPHTSFGDISIICNISQPFTVRVCELCHLLRLDKQSFSNILEIYFHDGRTILNNIMEEKESNDRIKKLESDIVIHIGKQEAELALKVNSAAFQGDFYQLKSLIRSGADPNKTDYDGRSPLHLAACRGYEDITLFLIQEGVDVNLKDKFGHTPLFEAVKAGQEGVIGLLVKEGASF",4
3,"AtGORK^510 (residues 1 to 510) (domain or fragment, Arabidopsis thaliana, UniProt Q94A76 1-510, looked up) MGRLRRRQEIIDHEEEESNDDVSSRRGKLSLAETFRWLDSSEHRRIETDGHNDYKYIIHPKNRWYKAWEMFILVWAIYSSLFTPMEFGFFRGLPERLFVLDIVGQIAFLVDIVLQFFVAYRDTQTYRTVYKPTRIAFRYLKSHFLMDFIGCFPWDLIYKASGKHELVRYLLWIRLFRVRKVVEFFQRLEKDTRINYLFTRILKLLFVEVYCTHTAACIFYYLATTLPPENEGYTWIGSLKLGDYSYENFREIDLWKRYTTALYFAIVTMATVGYGDIHAVNLREMIFVMIYVSFDMVLGAYLIGNITALIVKGSNTERFRDKMNDLISFMNRKKLGRDLRSQITGHVRLQYDSHYTDTVMLQDIPASIRAKIAQLLYLPYIKKVPLFKGCSTEFINQIVIRLHEEYFLPGEVITEQGNVVDHLYFVCEGLLEALVTKTDGSEESVTLLGPHTSFGDISIICNISQPFTVRVCELCHLLRLDKQSFSNILEIYFHDGRTILNNIMEEKESN",4
